Measurements from patent US20150246947A1 (BAXALTA, published 2015).

Tests used:
human Protein S [1] = molecular target: T1, human Protein S (human, UniProt P07225 42-676); test: cell-based or functional assay
T1 sequence: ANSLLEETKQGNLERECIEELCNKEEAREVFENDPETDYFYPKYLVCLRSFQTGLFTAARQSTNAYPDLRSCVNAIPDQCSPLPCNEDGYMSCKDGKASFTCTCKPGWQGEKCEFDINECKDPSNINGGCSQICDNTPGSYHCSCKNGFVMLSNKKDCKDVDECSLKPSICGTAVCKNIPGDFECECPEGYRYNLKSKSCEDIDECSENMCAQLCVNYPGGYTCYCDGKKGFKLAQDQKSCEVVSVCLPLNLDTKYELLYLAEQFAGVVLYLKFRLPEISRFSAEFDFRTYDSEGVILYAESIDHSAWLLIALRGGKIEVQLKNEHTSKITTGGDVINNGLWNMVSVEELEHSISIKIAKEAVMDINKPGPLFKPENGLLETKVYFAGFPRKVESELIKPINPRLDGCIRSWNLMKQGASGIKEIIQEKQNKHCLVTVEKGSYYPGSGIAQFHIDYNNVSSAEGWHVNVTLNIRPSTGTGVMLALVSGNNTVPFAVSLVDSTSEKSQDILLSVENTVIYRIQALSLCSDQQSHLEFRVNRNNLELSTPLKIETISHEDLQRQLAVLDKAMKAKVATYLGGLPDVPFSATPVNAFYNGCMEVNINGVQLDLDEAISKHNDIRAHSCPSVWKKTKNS

human Protein S [2] = molecular target: T1, human Protein S; test: cell-based or functional assay; remark: listed apart in the source
human Protein S [3] = molecular target: T1, human Protein S; test: Biacore (SPR), Protein S immobilized, 37 °C
Description: (§1) Protein S affinity also was determined via Biacore (Biacore 3000 or Biacore T200) using human full-length Protein S and human GAS6. Briefly, 1000 RU of Protein S or GAS6 were immobilized on a CMS chip. In order to probe the kinetics of Protein S binding peptides to Protein S, the peptides were injected at various concentrations in a HBS-buffer containing 3 mM CaCl₂ and 1% DMSO to the flow cell and allowed to interact with the immobilized proteins on the sensor chip. The chip could be regenerated with 4 M MgCl₂ in HBS-buffer. Sensorgrams were fitted to a Langmuir binding model for the determination of kₒₙ and koff and the calculation of KD. Peptides were tested on their specificity to Protein S with peptide binding studies on the anti-target GAS6.

human GAS6 = molecular target: T2, human GAS6 (human, UniProt Q14393 49-678, limits assumed); test: Biacore (SPR), GAS6 immobilized on the chip; sensorgrams reviewed visually
T2 construct: Immobilized on the Biacore chip; also called protein encoded by the Growth Arrest Specific-6 gene; anti-target
T2 sequence (looked up): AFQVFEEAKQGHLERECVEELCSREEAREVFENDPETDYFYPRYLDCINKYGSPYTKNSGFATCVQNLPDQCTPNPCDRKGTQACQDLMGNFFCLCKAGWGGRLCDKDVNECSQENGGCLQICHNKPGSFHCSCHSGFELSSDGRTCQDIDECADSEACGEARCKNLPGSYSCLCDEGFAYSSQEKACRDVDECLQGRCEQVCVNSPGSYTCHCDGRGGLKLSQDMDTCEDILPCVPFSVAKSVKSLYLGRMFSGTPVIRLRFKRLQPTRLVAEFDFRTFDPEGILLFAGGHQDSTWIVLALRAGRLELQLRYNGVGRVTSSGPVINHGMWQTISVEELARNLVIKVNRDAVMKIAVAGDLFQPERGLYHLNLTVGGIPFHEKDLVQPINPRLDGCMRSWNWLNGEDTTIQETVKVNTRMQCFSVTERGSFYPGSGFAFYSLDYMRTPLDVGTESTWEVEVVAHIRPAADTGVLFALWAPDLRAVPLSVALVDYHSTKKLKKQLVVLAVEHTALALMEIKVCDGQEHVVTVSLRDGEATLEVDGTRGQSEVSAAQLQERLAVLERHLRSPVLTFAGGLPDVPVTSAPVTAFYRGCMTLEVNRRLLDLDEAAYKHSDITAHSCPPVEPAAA
Description: as §1
Interactions with the anti-target GAS6 were measured via Biacore (surface plasmon resonance) (see Example 2). The maximum signal from the interaction of the peptides with human GAS6 was much lower than the signals obtained with Protein S as interaction partner. Kinetic analysis of the low GAS6 binding signals was error prone, and sensorgrams were reviewed visually to estimate anti-target binding. […]

human Protein S [4] = molecular target: T1, human Protein S; test: LANCE TR-FRET competition; Eu-Protein S 10 nM, competitor tracer JBS0684 300 nM; Molecular Devices M5 reader
Description: Peptides also were characterized in a competition, homogenous europium-based TR-FRET assay (LANCE IC50 assay) using JBS0684 as a tracer (i.e., competitor for Protein S binding). The following reagents were mixed together in a Perkin-Elmer ProxiPlate MTP well (indicated concentration is the final concentration): Eu-labeled Protein S (10 nM), Ulight™-labeled Streptavidin (100 nM), tracer (JBS0684 (300 nM)), and peptide (titrated in three-fold dilution steps). The final volume was 50 μl/well. The reaction mix was incubated for 1 hour at room temperature, then the fluorescence emission at 665 nm was recorded on a multi-mode reader (SpectraMax® M5, Molecular Devices) using the following instrument settings: Ex 340 nm, Em 665 nm, delay 50 μsec, integration 100 μsec, reads 100. Binding of tracer peptides to soluble europium-labeled Protein S was detected by Streptavidin labeled with an acceptor fluorophor (ULight™). Inhibition of tracer-binding to Protein S by a non-biotinylated peptide results in a decrease of TR-FRET between the Eu-labeled Protein S and ULight™-labeled Streptavidin. IC50 values were obtained from peptide titration curves at constant tracer concentration using non-linear regression of the fluorescence emission signals at 665 nm.

fold increase of activity in the CAT-assay compared to JBS2512 (human Protein S [1]): 1.6 fold | CAT EC50 (human Protein S [2]): 14 nM | Kd (human Protein S [3]): 3.8 nM | koff (human Protein S [3]): 0.00431 s⁻¹ | kon (human Protein S [3]): 1.14e+06 M⁻¹ s⁻¹ | binding result (human GAS6): no binding (tested: 1 µM) | IC50 (human Protein S [4]): 49 nM
Binder: Ac-TGLVSAGWYDYNFDHYREFT-NH2 (also called parent peptide JBS2572) [JBS2572]
